Laboratory results published in the RNAGym collection of RNA variant scans (doi:10.1073/pnas.2313332121).

B1: TPR t1 (parent)
chain: GACCAAUCUGCCCUCAGAGCUCGAGAACAUCUUCGGAUGCAGAGGAGGCAGGCUUCGGUGGCGCGAUAGCGCCAACGUCCUCAACCUCCAAUGCAUCCCACCACAUGAUGAUGCCUGAAGAGCCUUGGUUUUUUG

Variants of: B1
Assay: polymerase ribozyme fitness, log enrichment relative to wild type (log ratio); higher = more active; in vitro selection for triplet polymerase activity
In short: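 Input and output libraries were sequenced on Illumina after a single in vitro selection round, run in triplicate on PCR-built, transcribed mutant libraries of each subunit of a heterodimeric triplet polymerase ribozyme. Selection annealed libraries to a biotinylated primer, the partner subunit and triplets, incubated them frozen at −7 °C, then gel-excised extended constructs for streptavidin-bead capture and RT-PCR. Genotypes with ≥10 input reads and ≥1 read per output were kept. Fitness is the logarithm, taken in base 2, of genotype enrichment divided by wild-type enrichment, using inverse-variance-weighted replicate averages.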

GACCAAUCUGCCCUCAGAGCUCGAGAACAUCUUCGGAUGCAGAGGAGGCAGGCUUCGGUGUCGCGAUAGCGCCAACGUCCUCAACCUGCAAUGCAUCCCACCACAUGAUGAUGCCUGAAGAGCCUUGGUUUUUUG [G61U C88G] and GACCAAUCUGCCCUCAGAGCUCGAGAACAUCUUCGGAUGCAGAGGAGGCAGGCUUCGGUGUCGCGAUAGCGCCAACGUCCUCAACCUACAAUGCAUCCCACCACAUGAUGAUGCCUGAAGAGCCUUGGUUUUUUG [G61U C88A] are within 0.2 log units of each other in “polymerase ribozyme fitness (log ratio)” value: -1.3 for the first, -1.18 for the second.

Going from GACCAAUCUGCCCUCAGAGCUCGAGAACAUCUUCGGAUGCAGAGGAGGCAGGCUUCGGUGUCGCGAUAGCGCCAACGUCCUCAACCUCCAAUGCAUCCCAUCACAUGAUGAUGCCUGAAGAGCCUUGGUUUUUUG [G61U C101U] to GACCAAUCUGCCCUCAGAGCUCGAGAACAUCUUCGGAUGCAGAGGAGGCAGGCUUCGGUGUCGCGAUAGCGCCAACGUCCUCAACCUCCAAUGCAUCCCAACACAUGAUGAUGCCUGAAGAGCCUUGGUUUUUUG [G61U C101A], the “polymerase ribozyme fitness (log ratio)” value falls from 0.0554 to -1.33.

Compared with GACCAAUCUGCCCUCAGAGCUCGAGAACAUCUUCGGAUGCAGAGGAGGCAGGCUUCGGUGUCGCGAUAGCGCCAACGUCCUCAACCUCCAAUGCAUGCCACCACAUGAUGAUGCCUGAAGAUCCUUGGUUUUUUG [G61U C97G G122U], GACCAAUCUGCCCUCAGAGCUCGAGAACAUCUUCGGAUGCAGAGGAGGCAGGCUUCGGUGUCGCGAUAGCGCCAACGUCCUCAACCUCCAAUGCAUCCCCCCACAUGAUGAUGCCUGAAGAGCCUUGGUUUUGUG [G61U A100C U133G] is higher in “polymerase ribozyme fitness (log ratio)” value: -3.87 for the first, -1.29 for the second.

First: GACCAAUCUGCCCUCAGAGCUCGAGAACAUCUUCGGAUGCAGAGGAGGCAGGCUUCGGUGUCGCGAUAGCGCCAACGUCCUCUACCUCCACUGCAACCCACCACAUGAUGAUGCCUGAAGAGCCUUGGUUUUUUG [G61U A83U A91C U96A]
Second: GACCAAUCUGCCCUCAGAGCUCGAGAACAUCUUCGGAUGCAGAGGAGGCAGGCUUCGGUGUCGCGAUAGCGCUAACGUCCUCAACCUCCAAUUCAUCCCACCACAUGAUGAUGCCUGAAGAGCCUUGGUUUUUUG [G61U C73U G93U]
The “polymerase ribozyme fitness (log ratio)” value of the first is higher: -1.27 for the first, -2.38 for the second.

First: GACCAAUCUGCCCUCAGAGCUCGAGAACAUCUUCGGAUGCAGAGGAGGCAGGCUUCGGUGUCGCGAUAGCGCCAACGUCCUCAACCUCCAAUGCAUCCCACCAAAUGAUGAUGCCUGAAGAGCCUUGGUUUUUUG [G61U C104A]
Second: GACCAAUCUGCCCUCAGAGCUCGAGAACAUCUUCGGAUGCAGAGGAGGCAGGCUUCGGUGUCGCGAUAGCGCCAACGUCCUCAACUUCCAAUGCAUCCCACCACAUGAUGAUGCCUGAAGAGCCUUGGUUUUUUG [G61U C86U]
The “polymerase ribozyme fitness (log ratio)” value of the first is lower: -1.7 for the first, -0.781 for the second.

Going from GACCAAUCUGCCCUCAGAGCUCGAGAACAUCUUCGGAUGCAGAGGAGGCAGGCUUCGGUGUCGCGAUAGCGACAACGUCCUCAACCUCCAAUGCAUCCCACCACAUGAUGAUGCCUGAAGAGCCUUGGUUUUUUG [G61U C72A] to GACCAAUCUGCCCUCAGAGCUCGAGAACAUCUUCGGAUGCAGAGGAGGCAGGCUUCGGUGUCGCGAUAGCGGCAACGUCCUCAACCUCCAAUGCAUCCCACCACAUGAUGAUGCCUGAAGAGCCUUGGUUUUUUG [G61U C72G], the “polymerase ribozyme fitness (log ratio)” value falls from 0.45 to -0.168.

Compared with GACCAAUCUGCCCUCAGAGCUCGAGAACAUCUUCGGAUGCAGAGGAGGCAGGCUUCGGUGUCGCGAUAGCGCCAACGUCCUCAACCUCCAAUGCAUCCCACCACAUGAUGAUGUCUGAAGAGCCUUGGUUUUUUG [G61U C114U], GACCAAUCUGCCCUCAGAGCUCGAGAACAUCUUCGGAUGCAGAGGAGGCAGGCUUCGGUGUCGCGAUAGCGCCAACGUCCUCAAGCUCCAAUGCAUCCCACCACAUGAUGAUGCCUGAAGAGCCUUCGUUUUUUG [G61U C85G G127C] is lower in “polymerase ribozyme fitness (log ratio)” value: -0.943 for the first, -2.41 for the second.

First: GACCAAUCUGCCCUCAGAGCUCGAGAACAUCUUCGGAUGCAGAGGAGGCAGGCUUCGGUGUCGCGAUAGCGCCAACGUCCUCAACCUCCAAUGCAUCCCAGCACAAGAUGAUGCCUGAAGAGCCUUGGUUUUUUG [G61U C101G U106A]
Second: GACCAAUCUGCCCUCAGAGCUCGAGAACAUCUUCGGAUGCAGAGGAGGCAGGCUUCGGUGUCGCGAUAGCGCCAACGUCCUGAAUCUCCAAUGCAUCCCACCACAUGAUGAUGCCUGAUGAGCCUUGGUUUUUUG [G61U C82G C85U A119U]
The “polymerase ribozyme fitness (log ratio)” value of the first is higher: 0.513 for the first, -0.891 for the second.

Compared with GACCAAUCUGCCCUCAGAGCUCGAGAACAUCUUCGGAUGCAGAGGAGGCAGGCUUCGGUGUCGCGAUAGCGCCAACGUACUCAACCUCCAAUGCAUCCCACCACAUGAUUAUGCCUGAAGAGCCUUGGUUUUUUG [G61U C79A G110U], GACCAAUCUGCCCUCAGAGCUCGAGAACAUCUUCGGAUGCAGAGGAGGCAGGCUUCGGUGUCGCGAUAGCGCCAACGUCCUCAGCCUCCAAUUCAUCCCACCACAUGAUGAUGCCUGAAUAGCCUUGGUUUUUUG [G61U A84G G93U G120U] is higher in “polymerase ribozyme fitness (log ratio)” value: -3.28 for the first, -0.773 for the second.

Going from GACCAAUCUGCCCUCAGAGCUCGAGAACAUCUUCGGAUGCAGAGGAGGCAGGCUUCGGUGUCGUGAUAGCGCCAACGUCCUCAACCUCCAAUGCAUCCCACCACAUGAUGAUGCCUGAAGAGCCUUGGUUUUUUG [G61U C64U] to GACCAAUCUGCCCUCAGAGCUCGAGAACAUCUUCGGAUGCAGAGGAGGCAGGCUUCGGUGUCGCGAUAGCGCCAACGUUCUCAACCUCCAAUGCAUCCCACCACAUGAUGAUGCCUGAAGAGCCUUGGUUUUUUG [G61U C79U], the “polymerase ribozyme fitness (log ratio)” value rises from -3.25 to 0.149.

In the case of GACCAAUCUGCCCUCAGAGCUCGAGAACAUCUUCGGAUGCAGAGGAGGCAGGCUUCGGUGUCGCGAUAGCGCCAACGUCCUCACCCUCCAAUGCAUCCCACCACAUGAUGAUGCCUGAAGAGCCUUGGUUUUUUG [G61U A84C], the “polymerase ribozyme fitness (log ratio)” value is reported as 0.447.
